The Kd is the concentration at which binding is half-saturated. For orientation: stoichiometry N means a count of units in the complex or per binding partner.

For series [1], the target named is FLAG-tagged B14 F130K (vaccinia virus strain Western Reserve) (UniProt P24772). Kind of series: co-IP.
The series “SEC-MALS” deals with the molecule itself. The experiment in a line: SEC-MALS.
Series [2] deals with FLAG-tagged B14 Y35E (vaccinia virus strain Western Reserve), P24772. The experiment in a line: co-IP. The following applies: remark: other sources report otherwise.

In the case of “N-terminally HA-tagged IκB kinase β (IKKβ) (from UniProt O14920 1-756) (enzyme)”, the co-precipitated IKKβ relative to wild-type B14 (% of wild-type B14) in series [1] amounted to 1.

B1: N-terminally His6-tagged wild-type B14 (vaccinia virus strain Western Reserve) (natural protein)
chain: MTANFSTHVFSPQHCGCDRLTSIDDVRQCLTEYIYWSSYAYRNRQCAGQLYSTLLSFRDDAELVFIDIRELVKNMPWDDVKDCAEIIRCYIPDEQKTIREISAIIGLCAYAATYWGGEDHPTSNSLNALFVMLEMLNYVDYNIIFRRMN
Regarding B1, in “SEC-MALS”, the Kd turned out to be 20.6 ± 0.9 µM and the “stoichiometry N” value came to 2.

B2: N-terminally HA-tagged IκB kinase β (IKKβ), O14920 1-756 (enzyme)
chain: MSWSPSLTTQTCGAWEMKERLGTGGFGNVIRWHNQETGEQIAIKQCRQELSPRNRERWCLEIQIMRRLTHPNVVAARDVPEGMQNLAPNDLPLLAMEYCQGGDLRKYLNQFENCCGLREGAILTLLSDIASALRYLHENRIIHRDLKPENIVLQQGEQRLIHKIIDLGYAKELDQGSLCTSFVGTLQYLAPELLEQQKYTVTVDYWSFGTLAFECITGFRPFLPNWQPVQWHSKVRQKSEVDIVVSEDLNGTVKFSSSLPYPNNLNSVLAERLEKWLQLMLMWHPRQRGTDPTYGPNGCFKALDDILNLKLVHILNMVTGTIHTYPVTEDESLQSLKARIQQDTGIPEEDQELLQEAGLALIPDKPATQCISDGKLNEGHTLDMDLVFLFDNSKITYETQISPRPQPESVSCILQEPKRNLAFFQLRKVWGQVWHSIQTLKEDCNRLQQGQRAAMMNLLRNNSCLSKMKNSMASMSQQLKAKLDFFKTSIQIDLEKYSEQTEFGITSDKLLLAWREMEQAVELCGRENEVKLLVERMMALQTDIVDLQRSPMGRKQGGTLDDLEEQARELYRRLREKPRDQRTEGDSQEMVRLLLQAIQSFEKKVRVIYTQLSKTVVCKQKALELLPKVEEVVSLMNEDEKTVVRLQEKRQKELWNLLKIACSKVRGPVSGSPDSMNASRLSQPGQLMSQPSTASNSLPEPAKKSEELVAEAHNLCTLLENAIQDTVREQDQSFTALDWSWLQTEEEEHSCLEQAS
Consider B2, for which, in series [2], the co-precipitated IKKβ relative to wild-type B14 (fold of wild-type B14) turned out to be 0.5.

Source of the values: publication PMC3121528 (The Journal of Biological Chemistry, 2011).
